Test results reported in the Human Domainome abundance scans (Beltran et al. 2025).
± gives the uncertainty stated by the source.

Experiment: abundance fitness (aPCA) (normalised: wild type 0, dead -1); higher = more abundant; growth selection in yeast, the domain comes from the species named
Conditions: Homo sapiens

Question: For “Transcription factor SOX-11 K108Q, P35716”, which abundance fitness is on record?
Answer: -0.031 ± 0.13

Question: Which abundance fitness does the source give for “Transcription factor SOX-11 L90M, P35716” here?
Answer: 0.343 ± 0.13

Question: With “Transcription factor SOX-11 L107K, P35716” as the substance, how does the abundance fitness read?
Answer: -0.218 ± 0.14

Question: Which abundance fitness does the source give for “Transcription factor SOX-11 M68A, P35716” here?
Answer: -0.247 ± 0.066

Question: Which abundance fitness does the source give for “Transcription factor SOX-11 M68L, P35716” here?
Answer: 0.093 ± 0.059

Question: With “Transcription factor SOX-11 M74L, P35716” as the substance, how does the abundance fitness read?
Answer: -0.084 ± 0.056

Question: For “Transcription factor SOX-11 M89A, P35716”, which abundance fitness is on record?
Answer: 0.098 ± 0.071

Question: For “Transcription factor SOX-11 M110L, P35716”, which abundance fitness is on record?
Answer: -0.068 ± 0.053

Question: For “Transcription factor SOX-11 Q70A, P35716”, which abundance fitness is on record?
Answer: -0.128 ± 0.065

Question: With “Transcription factor SOX-11 R65K, P35716” as the substance, how does the abundance fitness read?
Answer: -0.364 ± 0.34

Question: For “Transcription factor SOX-11 R82I, P35716”, which abundance fitness is on record?
Answer: 0.406 ± 0.048

Question: For “Transcription factor SOX-11 R82M, P35716”, which abundance fitness is on record?
Answer: 0.124 ± 0.12

Question: Which abundance fitness does the source give for “Transcription factor SOX-11 R86S, P35716” here?
Answer: -0.07 ± 0.046

Question: With “Transcription factor SOX-11 R100E, P35716” as the substance, how does the abundance fitness read?
Answer: 0.218 ± 0.12

Question: Which abundance fitness does the source give for “Transcription factor SOX-11 S60A, P35716” here?
Answer: 0.15 ± 0.097

Question: For “Transcription factor SOX-11 S71C, P35716”, which abundance fitness is on record?
Answer: -0.055 ± 0.052

Question: For “Transcription factor SOX-11 S93L, P35716”, which abundance fitness is on record?
Answer: -0.568 ± 0.099
